The target in assay [1] is CX3CR1 on naive mouse spleen leukocytes (mouse) (UniProt Q9Z0D9). Description: cell-based or functional assay.
The target in assay [2] is purified recombinant soluble polyhistidine-tagged G glycoprotein (respiratory syncytial virus) (UniProt P03423). As to the kind of experiment: flow cytometry, GHIS on CX3CR1-293 cells with control antibody (68% without). On the technique in general: Flow cytometry measures light scatter and fluorescence of single cells or particles in a stream.
Assay [3] concerns the target CX3CR1 on Vero cells (African green monkey). As to the kind of experiment: cell-based or functional assay.
Assay [4] has as its target T1, CX3CR1 on CX3CR1-transfected human embryonic kidney cells (293-CX3CR1 cells) (UniProt P49238 1-355).
T1 construct: whole, on cells; also called CX3C receptor; CX3CR1-293 cells
T1 sequence (looked up): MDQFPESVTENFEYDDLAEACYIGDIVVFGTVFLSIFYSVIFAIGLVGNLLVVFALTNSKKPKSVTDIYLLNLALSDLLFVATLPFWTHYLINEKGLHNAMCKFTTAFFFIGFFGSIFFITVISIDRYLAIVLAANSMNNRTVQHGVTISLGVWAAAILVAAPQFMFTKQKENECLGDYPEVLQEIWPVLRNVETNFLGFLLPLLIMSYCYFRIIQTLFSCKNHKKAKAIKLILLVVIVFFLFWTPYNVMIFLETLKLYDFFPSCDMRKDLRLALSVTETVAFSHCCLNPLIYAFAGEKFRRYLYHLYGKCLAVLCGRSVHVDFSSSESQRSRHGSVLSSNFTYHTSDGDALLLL
Description: flow cytometry, G glycoprotein on CX3CR1-293 cells with competitor peptide (84% without).

Assay [5] deals with T1, CX3CR1 on CX3CR1-transfected human …. As to the kind of experiment: inhibition of G glycoprotein binding to CX3CR1, methods described in the examples (no further detail).
Assay [6] deals with purified recombinant soluble polyhistidine-tagged G glycoprotein (respiratory syncytial virus) (UniProt P03423). As to the kind of experiment: flow cytometry; inhibition of polyhistidine-tagged G glycoprotein binding to 293-CX3CR1 cells.
The target is the same in assay [7]. Description: flow cytometry, GHIS on CX3CR1-293 cells with antibody (68% without).
The target of assay [8] is RSV G glycoprotein, purified from RSV/A2-infected Vero cells (respiratory syncytial virus, A2 strain) (UniProt P03423). Description: cell-based or functional assay.
In assay [9] the target is T2, mouse Fkn (mouse) (UniProt O35188).
T2 sequence (looked up): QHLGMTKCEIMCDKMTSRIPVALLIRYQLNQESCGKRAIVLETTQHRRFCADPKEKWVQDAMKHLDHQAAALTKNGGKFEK
As to the kind of experiment: cell-based or functional assay.

The target in assay [10] is RSV G glycoprotein, purified from RSV/A2-infected Vero cells (respiratory syncytial virus, A2 strain) (UniProt P03423). As to the kind of experiment: flow cytometry; inhibition of G glycoprotein binding to 293-CX3CR1 cells, in the absence of heparin.
Assay [11] has as its target T1, CX3CR1 on CX3CR1-transfected human …. As to the kind of experiment: Scatchard analysis; displacement of 1 nM 125I-fractalkine from 293-CX3CR1 cells by unlabeled Fkn, 2 h 37°C with azide; mean±SD of three experiments.
For assay [12] the target is unchanged. As to the kind of experiment: Scatchard analysis; displacement of 1 nM 125I-fractalkine from 293-CX3CR1 cells by unlabeled G glycoprotein, 2 h 37°C with azide; mean±SD of three experiments.

Here are results for 16 molecules from patent publication US20040009177A1 (SERVICES, published 2004).

CX3CR1 on naive mouse spleen leukocytes (mouse), sequence (Q9Z0D9 whole entry): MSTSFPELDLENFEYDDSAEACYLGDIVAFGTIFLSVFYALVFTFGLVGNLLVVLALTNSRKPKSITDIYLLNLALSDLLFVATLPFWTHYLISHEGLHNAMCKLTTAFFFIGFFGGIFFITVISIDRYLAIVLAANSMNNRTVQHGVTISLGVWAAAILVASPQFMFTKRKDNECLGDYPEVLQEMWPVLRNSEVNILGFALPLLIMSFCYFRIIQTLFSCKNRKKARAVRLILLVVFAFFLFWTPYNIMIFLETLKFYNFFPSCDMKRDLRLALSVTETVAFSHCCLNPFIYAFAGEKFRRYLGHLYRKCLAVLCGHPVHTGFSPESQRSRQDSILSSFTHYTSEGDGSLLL

As to “mouse Fkn (from UniProt O35188 25-105) (ligand)”, in assay [1], the chemotactic index of mouse leukocytes toward G glycoprotein with Fkn as antagonist (chemotactic index) stood at 1.2 and the inhibition of mouse leukocyte chemotaxis toward G glycoprotein by Fkn came to 75%.
Turning to “anti-F glycoprotein monoclonal antibody 131-2A”, the percent positive staining of GHIS in the presence of the antibody in assay [2] is 60%.
normal rabbit sera: the RSV plaque inhibition (%) on Vero cells; Normal rabbit sera (control) in assay [3] was 6%.

B1: G glycoprotein peptide RT34 (peptide)
peptide: NKKPGKKTTTKP
notes: synthetic 12-mer C-terminal to the CX3C motif
With B1, the “percent positive staining of G glycoprotein in the presence of the peptide” value (“percent positive staining … of the peptide” below) in [4] is 74%.
On the same count and under the same terms, next, TCWACKRIPNK [G glycoprotein peptide ?-1, 11-mer variant of RT33 with a deletion of ILE in the CX3C motif]: 73%.

B2: G glycoprotein peptide EYp1, TCAAACKRIPNKK (SEQ ID NO: 5) (peptide)
peptide: TCAAACKRIPNKK
notes: 13-mer variant of RT33 with the motif CAAAC
In [5], B2 displayed a percent inhibition of over 90%.
In the case of TCNAACKRIPNKK [peptide TCNAACKRIPNKK (SEQ ID NO: 7)], in assay [5], the percent inhibition is over 90%.
In assay [5], TCFAACKRIPNKK [peptide TCFAACKRIPNKK (SEQ ID NO: 11)] gave a percent inhibition of over 90%.
Turning to TCDAACKRIPNKK [peptide TCDAACKRIPNKK (SEQ ID NO: 8)], the percent inhibition in assay [5] is over 90%.
TCWAACKRIPNKK [peptide TCWAACKRIPNKK (SEQ ID NO: 6)]: the percent inhibition in [5] is over 90%.
In [5], TCMAACKRIPNKK [peptide TCMAACKRIPNKK (SEQ ID NO: 10)] had a percent inhibition of over 90%.

B3: anti-G glycoprotein monoclonal antibody 131-2G (antibody, from another filing, V domains shown)
VH: EVQLQQSGPELVKPGTSVKISCKASGYSFTGFTMNWVKQSHGKNLEWFGLINPFNGNTGYNQKFKGKATLTVDKSSSTAFMELLSLTSEDSAVYYCARSGKSYDYEAWFTYWGQGTLVTVSA
VL: DIVMTQTTLSLPVSLGNQASISCRSSQTIVHTNGNTYLEWYLQKPGQSPKLLIYKVSNRFSGVPDRFSGSGSGTDFILNISRVEAEDLGVYYCFQGSHVPFTFGSGTKLEIKR
Take B3: the percent inhibition in assay [6] is 80 to 88%; in [10] it was 32 to 48%. Further, the percent positive staining of GHIS in the presence of the antibody in [7] came out at 10%. In assay [8], this molecule registered a chemotactic index of mouse leukocytes toward G glycoprotein with anti-G glycoprotein (131-2G) (chemotactic index) of 1.1. The chemotactic index of mouse leukocytes toward Fkn with anti-G glycoprotein (131-2G) (chemotactic index) in assay [9] was 4.8.

B4: human fractalkine (R&D Diagnostics) (ligand, UniProt P78423 25-100, looked up)
chain: QHHGVTKCNITCSKMTSKIPVALLIHYQQNQASCGKRAIILETRQHRLFCADPKEQWVKDAMQHLDRQAAALTRNG
notes: also called Fkn; human Fkn
For B4, the Kd (commonly the equilibrium constant for the complex coming apart) in assay [11] turned out to be 5.8 nM.

B5: G glycoprotein peptide RT33 (peptide)
peptide: TCWAICKRIPNK
notes: synthetic 12-mer with the CX3C motif CWAIC
Consider B5, for which the “percent positive staining … of the peptide” value in assay [4] came to 48%.

B6: RSV G glycoprotein, purified from RSV/A2-infected Vero cells (ligand, respiratory syncytial virus, A2 strain, UniProt P03423 1-298, looked up)
chain: MSKNKDQRTAKTLERTWDTLNHLLFISSCLYKLNLKSVAQITLSILAMIISTSLIIAAIIFIASANHKVTPTTAIIQDATSQIKNTTPTYLTQNPQLGISPSNPSEITSQITTILASTTPGVKSTLQSTTVKTKNTTTTQTQPSKPTTKQRQNKPPSKPNNDFHFEVFNFVPCSICSNNPTCWAICKRIPNKKPGKKTTTKPTKKPTLKTTKKDPKPQTTKSKEVPTTKPTEEPTINTTKTNIITTLLTSNTTGNPELTSQMETFHSTSSEGNPSPSQVSTTSEYPSQPSSPPNTPRQ
notes: Lectin and Q-Sepharose purified; concentration estimated with a molecular weight of 90 kD; also called attachment protein
As for B6, in [12], binding was characterised by a dissociation constant (Kd) of 2.1 nM.
For the molecule VPCSICSNNPTC (synthetic 12-mer, lacks the CX3C motif) [G glycoprotein peptide RT32], the “percent positive staining … of the peptide” value in [4] was found to be 72%.
